Laboratory results published in the supplement of paper PMC9112550, “Optimization of the antimicrobial peptide Bac7 by deep mutational scanning” (BMC Biology, 2022).

System: Escherichia coli TOP10
Test: shrunken log2 fold change of peptide-encoding DNA abundance (4.5 h post-induction vs induction); higher = less antimicrobial activity (less host growth inhibition)
Details: time post-induction: 4.5 h; library: site-saturation at positions 5, 18, 19, 20
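Note: peptides expressed intracellularly from a pBAD plasmid library in pooled LB shake-flask culture, induced with 0.3% L-arabinose, DNA abundance read by NGS, three biological replicates, DESeq2 with apeglm shrinkage.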

| Sequence | shrunken log2 fold change |
| --- | --- |
| RRIRNRPPRLPRPRPRPYMAPRP | -0.0692 |
| RRIRQRPPRLPRPRPRPLNTPRP | -0.937 |
| RRIRRRPPRLPRPRPRPLYRPRP | -0.121 |
| RRIRYRPPRLPRPRPRPLKFPRP | -0.42 |
| RRIRWRPPRLPRPRPRPGSLPRP | 0.0223 |
| RRIRARPPRLPRPRPRPSVTPRP | 0.0595 |
| RRIRQRPPRLPRPRPRPGTFPRP | -0.499 |
| RRIRGRPPRLPRPRPRPDHWPRP | 0.186 |
| RRIRNRPPRLPRPRPRPIGYPRP | 0.103 |
| RRIRLRPPRLPRPRPRPKLDPRP | -0.0265 |
| RRIRPRPPRLPRPRPRPSPGPRP | 0.0372 |
| RRIRIRPPRLPRPRPRPASAPRP | 0.613 |
| RRIRKRPPRLPRPRPRPDRTPRP | 0.0739 |
| RRIRTRPPRLPRPRPRPDRFPRP | 0.0382 |
| RRIRKRPPRLPRPRPRPELPPRP | 0.114 |
| RRIRDRPPRLPRPRPRPRKHPRP | -0.134 |
| RRIRDRPPRLPRPRPRPKKAPRP | 0.0426 |
| RRIRWRPPRLPRPRPRPCCRPRP | 0.174 |
| RRIRIRPPRLPRPRPRPPAYPRP | -0.384 |
| RRIRRRPPRLPRPRPRPSKHPRP | -0.196 |
| RRIRQRPPRLPRPRPRPQAYPRP | -0.0257 |

| Sequence | shrunken log2 fold change |
| --- | --- |
| RRIRCRPPRLPRPRPRPKRMPRP | 0.118 |
| RRIRPRPPRLPRPRPRPIVWPRP | 0.0606 |
| RRIRIRPPRLPRPRPRPFPGPRP | -0.155 |
| RRIRCRPPRLPRPRPRPYSEPRP | -0.766 |
| RRIRPRPPRLPRPRPRPDPNPRP | -0.133 |
| RRIRTRPPRLPRPRPRPTDDPRP | -0.078 |
| RRIRERPPRLPRPRPRPWDPPRP | 0.173 |
| RRIRERPPRLPRPRPRPITLPRP | 0.0653 |
| RRIRTRPPRLPRPRPRPIEAPRP | -0.199 |
| RRIRIRPPRLPRPRPRPCMFPRP | -0.738 |
| RRIRGRPPRLPRPRPRPSQCPRP | -0.165 |
| RRIRPRPPRLPRPRPRPDLRPRP | -0.124 |
| RRIRKRPPRLPRPRPRPLDMPRP | 0.0395 |
| RRIRDRPPRLPRPRPRPNYPPRP | 0.0151 |
| RRIRLRPPRLPRPRPRPWSIPRP | -0.0808 |
| RRIRQRPPRLPRPRPRPFWDPRP | 0.213 |
| RRIRSRPPRLPRPRPRPREVPRP | -0.0353 |
| RRIRSRPPRLPRPRPRPRERPRP | 0.431 |
| RRIRYRPPRLPRPRPRPIELPRP | -0.0405 |
| RRIRFRPPRLPRPRPRPLIKPRP | -0.31 |
| RRIRHRPPRLPRPRPRPINRPRP | 0.0787 |

| Sequence | shrunken log2 fold change |
| --- | --- |
| RRIRARPPRLPRPRPRPRDRPRP | 0.706 |
| RRIRSRPPRLPRPRPRPHMEPRP | -0.376 |
| RRIRPRPPRLPRPRPRPCMIPRP | -0.692 |
| RRIRQRPPRLPRPRPRPKPVPRP | 0.407 |
| RRIRWRPPRLPRPRPRPIVHPRP | -0.175 |
| RRIRGRPPRLPRPRPRPHEWPRP | 0.116 |
| RRIRTRPPRLPRPRPRPYRMPRP | -0.128 |
| RRIRARPPRLPRPRPRPPCTPRP | 0.164 |
| RRIRGRPPRLPRPRPRPPATPRP | 1.79 |
| RRIRDRPPRLPRPRPRPNNVPRP | -0.243 |
| RRIRDRPPRLPRPRPRPVLLPRP | -0.00551 |
| RRIRQRPPRLPRPRPRPAVFPRP | -0.0406 |
| RRIRPRPPRLPRPRPRPSVGPRP | -0.295 |
| RRIRHRPPRLPRPRPRPAGGPRP | -0.131 |
| RRIRFRPPRLPRPRPRPPEKPRP | 0.078 |
| RRIRPRPPRLPRPRPRPNEDPRP | -0.509 |
| RRIRMRPPRLPRPRPRPKVPPRP | 0.882 |
| RRIRSRPPRLPRPRPRPMNPPRP | -0.0648 |
| RRIRIRPPRLPRPRPRPMLDPRP | 0.0726 |
| RRIRQRPPRLPRPRPRPGQIPRP | -0.226 |
| RRIRKRPPRLPRPRPRPYLSPRP | -0.119 |
